The results in this text go back to patent US20210238260.

To fix the notation:
B1: FIXa A103N/N105S/K247N/N249S/R318Y/R338E/R403E/E410N (protein)
chain 1: YNSGKLEEFVQGNLERECMEEKCSFEEAREVFENTERTTEFWKQYVDGDQCESNPCLNGGSCKDDINSYECWCPFGFEGKNCELDVTCNIKNGRCEQFCKNSNDSKVVCSCTEGYRLAENQKSCEPAVPFPCGRVSVSQTSKLTR
chain 2: VVGGEDAKPGQFPWQVVLNGKVDAFCGGSIVNEKWIVTAAHCVETGVKITVVAGEHNIEETEHTEQNRSVIRIIPHHNYNAAINKYNHDIALLELDEPLVLNSYVTPICIADKEYTNIFLKFGSGYVSGWGRVFHKGYSALVLQYLRVPLVDRATCLESTKFTIYNNMFCAGFHEGGRDSCQGDSGGPHVTEVEGTSFLTGIISWGEECAMKGKYGIYTKVSEYVNWIKNKTKLT
B2: FIXa D104N/K106S/K228N/K247N/N249S (protein)
chain 1: YNSGKLEEFVQGNLERECMEEKCSFEEAREVFENTERTTEFWKQYVDGDQCESNPCLNGGSCKDDINSYECWCPFGFEGKNCELDVTCNIKNGRCEQFCKNSANNSVVCSCTEGYRLAENQKSCEPAVPFPCGRVSVSQTSKLTR
chain 2: VVGGEDAKPGQFPWQVVLNGKVDAFCGGSIVNEKWIVTAAHCVETGVNITVVAGEHNIEETEHTEQNRSVIRIIPHHNYNAAINKYNHDIALLELDEPLVLNSYVTPICIADKEYTNIFLKFGSGYVSGWGRVFHKGRSALVLQYLRVPLVDRATCLRSTKFTIYNNMFCAGFHEGGRDSCQGDSGGPHVTEVEGTSFLTGIISWGEECAMKGKYGIYTKVSRYVNWIKEKTKLT
B3: FIXa Y155F/K247N/N249S/R318Y/R338E/E410N (protein)
chain 1: YNSGKLEEFVQGNLERECMEEKCSFEEAREVFENTERTTEFWKQYVDGDQCESNPCLNGGSCKDDINSYECWCPFGFEGKNCELDVTCNIKNGRCEQFCKNSADNKVVCSCTEGYRLAENQKSCEPAVPFPCGRVSVSQTSKLTR
chain 2: VVGGEDAKPGQFPWQVVLNGKVDAFCGGSIVNEKWIVTAAHCVETGVKITVVAGEHNIEETEHTEQNRSVIRIIPHHNYNAAINKYNHDIALLELDEPLVLNSYVTPICIADKEYTNIFLKFGSGYVSGWGRVFHKGYSALVLQYLRVPLVDRATCLESTKFTIYNNMFCAGFHEGGRDSCQGDSGGPHVTEVEGTSFLTGIISWGEECAMKGKYGIYTKVSRYVNWIKNKTKLT
B4: FIXa D104N/K106S/Y155F/K228N/K247N/N249S (protein)
chain 1: YNSGKLEEFVQGNLERECMEEKCSFEEAREVFENTERTTEFWKQYVDGDQCESNPCLNGGSCKDDINSYECWCPFGFEGKNCELDVTCNIKNGRCEQFCKNSANNSVVCSCTEGYRLAENQKSCEPAVPFPCGRVSVSQTSKLTR
chain 2: VVGGEDAKPGQFPWQVVLNGKVDAFCGGSIVNEKWIVTAAHCVETGVNITVVAGEHNIEETEHTEQNRSVIRIIPHHNYNAAINKYNHDIALLELDEPLVLNSYVTPICIADKEYTNIFLKFGSGYVSGWGRVFHKGRSALVLQYLRVPLVDRATCLRSTKFTIYNNMFCAGFHEGGRDSCQGDSGGPHVTEVEGTSFLTGIISWGEECAMKGKYGIYTKVSRYVNWIKEKTKLT
B5: FIXa K247N/N249S/R318Y/R338E/E410N (protein)
chain 1: YNSGKLEEFVQGNLERECMEEKCSFEEAREVFENTERTTEFWKQYVDGDQCESNPCLNGGSCKDDINSYECWCPFGFEGKNCELDVTCNIKNGRCEQFCKNSADNKVVCSCTEGYRLAENQKSCEPAVPFPCGRVSVSQTSKLTR
chain 2: VVGGEDAKPGQFPWQVVLNGKVDAFCGGSIVNEKWIVTAAHCVETGVKITVVAGEHNIEETEHTEQNRSVIRIIPHHNYNAAINKYNHDIALLELDEPLVLNSYVTPICIADKEYTNIFLKFGSGYVSGWGRVFHKGYSALVLQYLRVPLVDRATCLESTKFTIYNNMFCAGFHEGGRDSCQGDSGGPHVTEVEGTSFLTGIISWGEECAMKGKYGIYTKVSRYVNWIKNKTKLT
B6: FIXa R318Y/R338E/R403E/E410S (protein)
chain 1: YNSGKLEEFVQGNLERECMEEKCSFEEAREVFENTERTTEFWKQYVDGDQCESNPCLNGGSCKDDINSYECWCPFGFEGKNCELDVTCNIKNGRCEQFCKNSADNKVVCSCTEGYRLAENQKSCEPAVPFPCGRVSVSQTSKLTR
chain 2: VVGGEDAKPGQFPWQVVLNGKVDAFCGGSIVNEKWIVTAAHCVETGVKITVVAGEHNIEETEHTEQKRNVIRIIPHHNYNAAINKYNHDIALLELDEPLVLNSYVTPICIADKEYTNIFLKFGSGYVSGWGRVFHKGYSALVLQYLRVPLVDRATCLESTKFTIYNNMFCAGFHEGGRDSCQGDSGGPHVTEVEGTSFLTGIISWGEECAMKGKYGIYTKVSEYVNWIKSKTKLT
B7: FIXa D104N/K106S/Y155F/K247N/N249S/R318Y/R338E/R403E/E410N (protein)
chain 1: YNSGKLEEFVQGNLERECMEEKCSFEEAREVFENTERTTEFWKQYVDGDQCESNPCLNGGSCKDDINSYECWCPFGFEGKNCELDVTCNIKNGRCEQFCKNSANNSVVCSCTEGYRLAENQKSCEPAVPFPCGRVSVSQTSKLTR
chain 2: VVGGEDAKPGQFPWQVVLNGKVDAFCGGSIVNEKWIVTAAHCVETGVKITVVAGEHNIEETEHTEQNRSVIRIIPHHNYNAAINKYNHDIALLELDEPLVLNSYVTPICIADKEYTNIFLKFGSGYVSGWGRVFHKGYSALVLQYLRVPLVDRATCLESTKFTIYNNMFCAGFHEGGRDSCQGDSGGPHVTEVEGTSFLTGIISWGEECAMKGKYGIYTKVSEYVNWIKNKTKLT
B8: FIXa D104N/K106S/K247N/N249S/R318Y/R338E/R403E/E410N (protein)
chain 1: YNSGKLEEFVQGNLERECMEEKCSFEEAREVFENTERTTEFWKQYVDGDQCESNPCLNGGSCKDDINSYECWCPFGFEGKNCELDVTCNIKNGRCEQFCKNSANNSVVCSCTEGYRLAENQKSCEPAVPFPCGRVSVSQTSKLTR
chain 2: VVGGEDAKPGQFPWQVVLNGKVDAFCGGSIVNEKWIVTAAHCVETGVKITVVAGEHNIEETEHTEQNRSVIRIIPHHNYNAAINKYNHDIALLELDEPLVLNSYVTPICIADKEYTNIFLKFGSGYVSGWGRVFHKGYSALVLQYLRVPLVDRATCLESTKFTIYNNMFCAGFHEGGRDSCQGDSGGPHVTEVEGTSFLTGIISWGEECAMKGKYGIYTKVSEYVNWIKNKTKLT
B9: FIXa R318Y/R338E/E410S (protein)
chain 1: YNSGKLEEFVQGNLERECMEEKCSFEEAREVFENTERTTEFWKQYVDGDQCESNPCLNGGSCKDDINSYECWCPFGFEGKNCELDVTCNIKNGRCEQFCKNSADNKVVCSCTEGYRLAENQKSCEPAVPFPCGRVSVSQTSKLTR
chain 2: VVGGEDAKPGQFPWQVVLNGKVDAFCGGSIVNEKWIVTAAHCVETGVKITVVAGEHNIEETEHTEQKRNVIRIIPHHNYNAAINKYNHDIALLELDEPLVLNSYVTPICIADKEYTNIFLKFGSGYVSGWGRVFHKGYSALVLQYLRVPLVDRATCLESTKFTIYNNMFCAGFHEGGRDSCQGDSGGPHVTEVEGTSFLTGIISWGEECAMKGKYGIYTKVSRYVNWIKSKTKLT
B10: FIXa K228N/K247N/N249S (protein)
chain 1: YNSGKLEEFVQGNLERECMEEKCSFEEAREVFENTERTTEFWKQYVDGDQCESNPCLNGGSCKDDINSYECWCPFGFEGKNCELDVTCNIKNGRCEQFCKNSADNKVVCSCTEGYRLAENQKSCEPAVPFPCGRVSVSQTSKLTR
chain 2: VVGGEDAKPGQFPWQVVLNGKVDAFCGGSIVNEKWIVTAAHCVETGVNITVVAGEHNIEETEHTEQNRSVIRIIPHHNYNAAINKYNHDIALLELDEPLVLNSYVTPICIADKEYTNIFLKFGSGYVSGWGRVFHKGRSALVLQYLRVPLVDRATCLRSTKFTIYNNMFCAGFHEGGRDSCQGDSGGPHVTEVEGTSFLTGIISWGEECAMKGKYGIYTKVSRYVNWIKEKTKLT

The target in this series is Factor X (FX), P00742.
Factor X (FX), P00742, sequence (P00742 whole entry, looked up): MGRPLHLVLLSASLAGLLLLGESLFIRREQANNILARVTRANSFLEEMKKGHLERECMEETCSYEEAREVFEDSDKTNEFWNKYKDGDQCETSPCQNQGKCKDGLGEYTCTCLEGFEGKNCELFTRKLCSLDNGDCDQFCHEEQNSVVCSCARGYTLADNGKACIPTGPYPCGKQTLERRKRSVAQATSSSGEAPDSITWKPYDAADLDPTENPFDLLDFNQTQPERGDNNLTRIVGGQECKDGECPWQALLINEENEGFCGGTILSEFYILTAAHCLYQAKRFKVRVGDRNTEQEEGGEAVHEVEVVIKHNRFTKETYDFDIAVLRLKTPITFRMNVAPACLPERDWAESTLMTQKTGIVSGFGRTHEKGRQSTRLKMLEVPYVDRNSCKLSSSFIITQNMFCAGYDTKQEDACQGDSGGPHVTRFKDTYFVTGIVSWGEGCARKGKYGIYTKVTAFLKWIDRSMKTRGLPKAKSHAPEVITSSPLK
In the case of B1, the KM (FX activation by FIXa in the Xase complex with FVIIIa, PC/PS vesicles and Ca2+) is 0.028 µM. With B2 the figure was 0.0771 µM. The same measure for B3: 0.0147 µM; for B4: 0.0753 µM.

As for B5, the KM (FX activation by FIXa in the Xase complex with FVIIIa, PC/PS vesicles and Ca2+) is 0.0166 µM. The same measure for B6: 0.0364 µM; for B7: 0.0518 µM; for B8: 0.059 µM.

On to B9, for which the KM (FX activation by FIXa in the Xase complex with FVIIIa, PC/PS vesicles and Ca2+) is 0.0164 µM. As to B10, the KM (FX activation by FIXa in the Xase complex with FVIIIa, PC/PS vesicles and Ca2+) amounted to 0.0945 µM.
